Data: article PMC9756111, “Stabilization of DNA fork junctions by Smc5/6 complexes revealed by single-molecule imaging”
Each block holds one molecule with its values, some of them ahead of it.

How the values were obtained:
[1] = biological target: Smc5/6 holocomplex (budding yeast) (UniProt Q12749); assay: single-molecule dual-colour Qdot co-detection (TIRF, DNA curtains); as a1, but buffer exchanged to 250 mM NaCl: Smc5/6 diffusing freely on double-tethered dsDNA (after equilibration on DNA); cluster size by statistical inference, assuming no unlabelled complexes (lower limit)
[2] = biological target: Smc5/6 holocomplex (budding yeast) (UniProt Q12749); assay: single-molecule dual-colour Qdot co-detection (TIRF, DNA curtains); Smc5/6 labelled with equal amounts of Qdot605 and Qdot705 anti-HA on the same epitope in 50 mM NaCl-Buffer R; puncta counted as they first appear on double-tethered dsDNA curtains (oligomers in solution), and binding at sites of previously bound Smc5/6; cluster size by statistical inference, assuming no unlabelled complexes (lower limit)
Smc5/6 holocomplex [3] = biological target: T1, Smc5/6 holocomplex (Saccharomyces cerevisiae (W303 …, UniProt Q08204;Q12749;Q07913;P38632;Q05541;P43124;Q03718;P40026 …)); assay: single-molecule capture on DNA curtain (TIRF); Smc5/6 preloaded on lambda dsDNA; 16 nM oligo; 1 mM ATP; mean about 4.0 oligos per punctum; Buffer R (composition not in material); dsDNA binding in 25 mM NaCl + 25 mM KCl, capture in 50 mM NaCl + 1 mM ATP; other steps 50-250 mM NaCl; pH and temperature not given in material; settings: protein: recombinant; tags: Smc6-3xStrepII; Nse4-His-3HA (Qdot anti-HA label); copies: 1;1;1;1;1;1;1;1; label: Alexa594; single stranded
Smc5/6 holocomplex [4] = biological target: T1, Smc5/6 holocomplex; assay: single-molecule capture on DNA curtain (TIRF); Smc5/6 preloaded on lambda dsDNA; 1 mM ATP; mean about 3.2 per punctum; Buffer R (composition not in material); dsDNA binding in 25 mM NaCl + 25 mM KCl, capture in 50 mM NaCl + 1 mM ATP; other steps 50-250 mM NaCl; pH and temperature not given in material; settings: protein: recombinant; tags: Smc6-3xStrepII; Nse4-His-3HA (Qdot anti-HA label); copies: 1;1;1;1;1;1;1;1; label: Alexa594; 3' overhang 9 nt on strand 2

- N, mean cluster size with a truncated Poissonian model (Smc5/6 per punctum) [1]: 3 to 4
- fraction of puncta with both colours [1]: 67%
- stoichiometry N (Smc5/6 per punctum) [1]: 2 to 3
- N, mean cluster size with a truncated Poissonian model (Smc5/6 per punctum) [2]: 2 to 3
- fraction of binding events from solution with both colours [2]: 39%
- fraction of complexes that oligomerized on DNA (bound to previously bound Smc5/6) [2]: 10%
- stoichiometry N (Smc5/6 complexes per punctum) [2]: 2
Molecule: Smc5/6 holocomplex (from UniProt Q12749 1-1114; Q08204 1-1093; Q07913 1-336; P38632 1-267; Q05541 1-303; P43124 1-402; Q03718 1-556)

B1: capture01 ssDNA-Alexa594 (ssDNA)
DNA: ATATATCTGACGCGTGCCTGGAGACTGGGGAGTAATCCTCTTGGCGGTTAAA
modifications: Alexa594 between ...GCGGTT and AAA
- binding result (Smc5/6 holocomplex [3]): binds

B2: capture01/capture02 dsDNA-Alexa594 (dsDNA)
DNA 1: ATATATCTGACGCGTGCCTGGAGACTGGGGAGTAATCCTCTTGGCGGTTAAA
DNA 2: TTTAACCGCCAAGAGGATTACTCCCCAGTCTCCAGGCACGCGTCAGATATATACATCCTGT
modifications: Alexa594 between ...GCGGTT and AAA of strand 1
- binding result (Smc5/6 holocomplex [4]): binds
